This note sets out measurements from patent publication US10364299B2, “Derivatives obtained from hyaluronic acid and carnosine” (CONSIGLIO NAZIONALE DELLE RICERCHE, priority 2014, dated 2019).

The nature of data set [1]: Intrinsic viscosity by size exclusion chromatography with triple detector. Type of data set: physicochemical. To be noted: for Intrinsic viscosity: 40°C, 0.1M sodium nitrate. The method, then: Experiments aimed at determining the molecular weight distribution (MWD) and the intrinsic viscosity of the conjugated HyCar were effected on a CPG/SEC chromatographic system equipped with a Malvern triple detector (ViscoteckTDmax).
The parameters indicated above were determined by means of size exclusion chromatography carried out on the chromatographic system GPCmax VE 2001 (Malvern), equipped with two TSK-GEL GMPWXL columns (7.8 mm ID×30 cm; Viscotek-TOSOH BIOSCIENCE) installed in series. The system is coupled with a system of three detectors positioned in series and comprising: a refraction index detector, a light scattering detector and a four-capillary differential viscometer. The sample was eluted using an aqueous solution 0.1M of sodium nitrate containing 0.5 g/L of sodium azide with a flow of 0.6 ml/min, at 40° C. The software Omnisec 4.1 was used for the acquisition and data analysis.
The physical parameters relating to the intrinsic viscosity and molecular weight (MW), determined at different concentrations for the conjugate of hyaluronic acid-carnosine, compared with those of the corresponding hyaluronic acid, determined by means of size exclusion chromatography coupled with a triple detector, are indicated in Table 1 below.
(In general: In gel filtration, larger molecules generally elute earlier.)

Data set [2] concerns the target T1, human serum carnosinase (CN1) (Homo sapiens, UniProt Q96KN2).
T1 construct: made in house; host or cells: HeLa cells, stably transfected; enzyme purified from the culture medium
T1 sequence (Q96KN2 26-507): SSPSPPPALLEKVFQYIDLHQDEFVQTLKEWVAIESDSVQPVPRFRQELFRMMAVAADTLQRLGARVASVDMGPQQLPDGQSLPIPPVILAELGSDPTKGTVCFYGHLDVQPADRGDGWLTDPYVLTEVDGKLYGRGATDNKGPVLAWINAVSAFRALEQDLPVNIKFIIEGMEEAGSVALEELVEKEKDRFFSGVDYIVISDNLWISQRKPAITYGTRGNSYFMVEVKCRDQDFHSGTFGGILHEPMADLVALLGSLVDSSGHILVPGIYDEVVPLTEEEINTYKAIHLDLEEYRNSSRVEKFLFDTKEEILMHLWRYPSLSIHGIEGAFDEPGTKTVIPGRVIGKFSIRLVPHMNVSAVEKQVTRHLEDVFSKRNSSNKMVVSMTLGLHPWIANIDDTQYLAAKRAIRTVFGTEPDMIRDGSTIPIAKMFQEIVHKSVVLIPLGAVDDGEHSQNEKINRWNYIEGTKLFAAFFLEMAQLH
The experiment in a line: Enzymatic hydrolysis by human serum carnosinase. The format is in vitro ADME. The settings on record: 900 μM, 37°C, 50 mM Tris/HCl pH 8.0, 5 hours; versus non-conjugated carnosine. As for the experimental part: The time-dependent stability of HyCar with respect to human serum carnosinase, compared with the stability of the mixture of carnosine+HA or carnosine alone, was determined by incubating each of these substances (900 μM) at 37° C. in 50 mM Tris/HCl (pH 8.0) with the above-mentioned enzyme (CN1), purified by the culture medium of Hela cells stably transfected as previously indicated (Antioxid. Redox Signal., 11, 2759, 2009). A parallel experiment was effected as negative control, in which hyaluronic acid alone was subjected to enzymatic action. The course of the reaction was followed by collecting, at various time intervals, 50 μl aliquots of the mixture for a total of 5 hours, and, after deproteinization with trichloroacetic acid (TCA), fluorometrically determining the quantity of histidine in the final solution, after reaction with ortho-phthalic aldehyde (OPA; Fluka), according to a procedure already described (Clin. Chim. Acta, 1982, 123, 221).
More specifically, FIG. 5 indicates the stability with time of HyCar (●), subjected to the action of human serum carnosinase, compared with the stability of carnosine (▪), carnosine+HA (▴), and HA alone (♦)(the latter used as negative control of the experiment). The histidine released was spectrophotometrically determined as OPA-derivative.

On to “conjugated 3-N-hyaluronyl of 2-(3-aminopropanamide)-3-(1H-imidazol-4-yl)propanoic acid [HyCar (7%)190 kD]”, for which the “intrinsic viscosity compared with non-conjugated hyaluronic acid of the same MW (in words)” value in data set [1] is given as “only slightly lower”. The Intrinsic viscosity in data set [1] (theoretical conc. 0.1 mg/ml) is 4.9 dL/g; in data set [1] (theoretical conc. 0.25 mg/ml) it was 4.8 dL/g; in data set [1] (theoretical conc. 0.5 mg/ml) it was 4.8 dL/g. For the same substance, the “resistance to the action of human serum carnosinase” value in data set [2] is “greater resistance”.
